Columns and labels:
HLA-A*0301 [1] = biological target: T1, HLA-A*0301 (human); experiment: competition with 125I-labelled probe peptide for purified HLA-A*0301, gel filtration; ratio to standard peptide 941.12
T1 construct: also called HLA-A3

HLA-A*0301 [2] = biological target: T2, HLA-A*0301 (human); experiment: inhibition of 125I-labelled standard peptide 941.12 binding to purified HLA-A*0301, gel filtration
T2 construct: also called HLA-A3

HLA-A*1101 [3] = biological target: HLA-A*1101 (human); experiment: competition with 125I-labelled probe peptide for purified HLA-A*1101, gel filtration; ratio to standard peptide 940.06 [..] (6.0 nM)
HLA-DRB1*0101 = biological target: T3, HLA-DRB1*0101 (human); experiment: competition with 125I probe peptide, purified HLA
T3 construct: also called DR1

HLA-A*0101 = biological target: T4, HLA-A*0101 (human); experiment: inhibition of 125I-labeled probe peptide binding to purified HLA-A*0101, gel filtration
T4 construct: also called HLA-A1

HLA-A*0301 [4] = biological target: T5, HLA-A*0301 (human); experiment: competition with 125I-labelled standard peptide for purified HLA, gel filtration
T5 construct: also called A3

HLA-A*1101 [5] = biological target: T6, HLA-A*1101 (human); experiment: as above
T6 construct: The construct is not described

[6] = biological target: T7, HLA-A*0301 (purified HLA class I molecule) (human); experiment: inhibition of 125I probe peptide binding to purified HLA; ratio to standard peptide; minus sign not explained
T7 construct: also called A3

[7] = biological target: HLA-A*1101 (purified HLA class I molecule) (human); experiment: inhibition of 125I probe peptide binding to purified HLA; ratio to standard peptide

B1: HER2/neu peptide, position 1144, 10 amino acids (DVRPQPPSPR) (peptide)
peptide: DVRPQPPSPR
notes: Synthetic peptide
relative binding ratio (IC50 of standard peptide / IC50 of test peptide) (HLA-A*0301 [1]): 0.0003 ratio

B2: HER2/neu peptide, position 795, 9 amino acids (peptide)
peptide: QLVTQLMPY
relative binding ratio (IC50 of standard peptide / IC50 of test peptide) (HLA-A*0301 [2]): 0.011 ratio

B3: HER2/neu peptide, position 888, 9 amino acids (peptide)
peptide: WMALESILR
notes: also called Her2/neu.888
relative binding ratio (IC50 of standard peptide / IC50 of test peptide) (HLA-A*1101 [3]): -0.0002 ratio

B4: HER2/neu peptide, position 959, 10 amino acids (peptide)
peptide: WMIDSECRPR
notes: also called Her2/neu.959
relative binding ratio (IC50 of standard peptide / IC50 of test peptide) (HLA-A*1101 [3]): 0.0002 ratio

B5: HER2/neu peptide, position 95, 9 amino acids (peptide)
peptide: PLQRLRIVR
relative binding ratio (IC50 of standard peptide / IC50 of test peptide) (HLA-A*0301 [2]): 0.0002 ratio

B6: HER2/neu peptide, position 835, 10 amino acids (peptide)
peptide: YLEDVRLVHR
notes: also called Her2/neu.835
relative binding ratio (IC50 of standard peptide / IC50 of test peptide) (HLA-A*1101 [3]): 0.0001 ratio

B7: Her2/neu.883 (peptide)
peptide: KVPIKWMALESILRR
IC50 (HLA-DRB1*0101): 0.0023 µM

B8: Her2/neu.693 (peptide)
peptide: ETELVEPLTPSGAMP
IC50 (HLA-DRB1*0101): 0.833 µM

B9: HER2/neu peptide, position 996, 10 amino acids (peptide)
peptide: PASPLDSTFY
relative binding ratio (IC50 of standard peptide / IC50 of test peptide) (HLA-A*0301 [2]): 0.0003 ratio

B10: HER2/neu peptide, position 83, 10 amino acids (peptide)
peptide: YVLIAHNQVR
notes: also called Her2/neu.83
relative binding ratio (IC50 of standard peptide / IC50 of test peptide) (HLA-A*1101 [3]): 0.0013 ratio

B11: HER2/neu peptide, position 962, 9 amino acids (DSECRPRFR) (peptide)
peptide: DSECRPRFR
notes: Synthetic peptide
relative binding ratio (IC50 of standard peptide / IC50 of test peptide) (HLA-A*0301 [1]): -0.0002 ratio

B12: HER2/neu peptide, position 874, 10 amino acids (ETEYHADGGK) (peptide)
peptide: ETEYHADGGK
notes: Synthetic peptide
relative binding ratio (IC50 of standard peptide / IC50 of test peptide) (HLA-A*0301 [1]): 0.0003 ratio

B13: Her2/neu.232 (peptide)
peptide: PTDCCHEQCAA
notes: HER2/neu peptide, 11-mer
IC50 (HLA-A*0101): 0.058 µM

B14: HER2/neu peptide, position 491, 9 amino acids (peptide)
peptide: QALLHTANR
relative binding ratio (IC50 of standard peptide / IC50 of test peptide) (HLA-A*0301 [2]): 0.0046 ratio

B15: HER2/neu peptide, position 959, 10 amino acids (peptide)
peptide: WMIDSECRPR
notes: Synthetic peptide; also called Her2/neu.959 (10-mer)
relative binding ratio (HLA-A*0301 [4]): -0.0002 ratio (IC50 of standard peptide / IC50 of test peptide) | relative binding ratio (HLA-A*1101 [5]): 0.0002 ratio (IC50 of standard peptide / IC50 of test peptide)

B16: HER2/neu peptide, printed position 730 (taken as 739), 9 amino acids (peptide)
peptide: WIPDGENVK
notes: also called Her2/neu.739
relative binding ratio (IC50 of standard peptide / IC50 of test peptide) (HLA-A*1101 [3]): 0.0001 ratio

B17: HER2/neu peptide, position 704, 10 amino acids (peptide)
peptide: GAMPNQAQMR
notes: also called Her2/neu.704 (10-mer)
relative binding ratio [6]: -0.0002 ratio (IC50 standard / IC50 test) | relative binding ratio [7]: 0.0041 ratio (IC50 standard / IC50 test)

B18: HER2/neu peptide, position 129, 10 amino acids (peptide)
peptide: VTGASPGGLR
notes: Synthetic peptide; also called Her2/neu.129 (10-mer)
relative binding ratio (HLA-A*0301 [4]): 0.0002 ratio (IC50 of standard peptide / IC50 of test peptide) | relative binding ratio (HLA-A*1101 [5]): 0.0005 ratio (IC50 of standard peptide / IC50 of test peptide)

B19: HER2/neu peptide, position 1130, 10 amino acids (peptide)
peptide: PLTCSPQPEY
relative binding ratio (IC50 of standard peptide / IC50 of test peptide) (HLA-A*0301 [2]): 0.0002 ratio

B20: HER2/neu peptide, position 321, 10 amino acids (EVTAEDGTQR) (peptide)
peptide: EVTAEDGTQR
notes: Synthetic peptide
relative binding ratio (IC50 of standard peptide / IC50 of test peptide) (HLA-A*0301 [1]): 0.0002 ratio

B21: HER2/neu peptide, position 845, 10 amino acids (DLAARNVLVK) (peptide)
peptide: DLAARNVLVK
notes: Synthetic peptide
relative binding ratio (IC50 of standard peptide / IC50 of test peptide) (HLA-A*0301 [1]): 0.0018 ratio

B22: HER2/neu peptide, position 914, 10 amino acids (ELMTFGAKPY) (peptide)
peptide: ELMTFGAKPY
notes: Synthetic peptide
relative binding ratio (IC50 of standard peptide / IC50 of test peptide) (HLA-A*0301 [1]): 0.0002 ratio

B23: HER2/neu peptide, position 83, 10 amino acids (peptide)
peptide: YVLIAHNQVR
notes: Synthetic peptide; also called Her2/neu.83 (10-mer)
relative binding ratio (HLA-A*0301 [4]): 0.0043 ratio (IC50 of standard peptide / IC50 of test peptide) | relative binding ratio (HLA-A*1101 [5]): 0.0013 ratio (IC50 of standard peptide / IC50 of test peptide)

B24: HER2/neu peptide, position 772, 10 amino acids (peptide)
peptide: YVMAGVGSPY
notes: also called Her2/neu.772
relative binding ratio (IC50 of standard peptide / IC50 of test peptide) (HLA-A*1101 [3]): 0.012 ratio

B25: Her2/neu.28 (peptide)
peptide: GTDMKLRLPASPETH
IC50 (HLA-DRB1*0101): 5 µM

B26: Her2/neu.861 (peptide)
peptide: ITDFGLARLLDIDET
IC50 (HLA-DRB1*0101): 1.04 µM

B27: HER2/neu peptide, position 24, 9 amino acids (peptide)
peptide: QVCTGTDMK
relative binding ratio (IC50 of standard peptide / IC50 of test peptide) (HLA-A*0301 [2]): 0.0007 ratio

B28: Her2/neu.280.T2 (peptide)
peptide: ETMPNPEGRY
notes: HER2/neu analog peptide
IC50 (HLA-A*0101): 0.0039 µM

Reference: patent US20040018971A1 (published 2004)
